# B1: Bispecific Protein #9 (bispecific antibody, human IgG1, kappa, L234A L235A)
# heavy 1: EVQLVESGGGLVQPGGSLRLSCAASGFTFTDYTMDWVRQAPGKGLEWVADVNPNSGGSIYNQRFKGRFTLSVDRSKNTLYLQMNSLRAEDTAVYYCARNLGPSFYFDYWGQGTLVTVSSASTKGPSVFPLAPSSKSTSGGTAALGCLVKDYFPEPVTVSWNSGALTSGVHTFPAVLQSSGLYSLSSVVTVPSSSLGTQTYICNVNHKPSNTKVDKKVEPKSCDKTHTCPPCPAPEAAGGPSVFLFPPKPKDTLMISRTPEVTCVVVDVSHEDPEVKFNWYVDGVEVHNAKTKPREEQYNSTYRVVSVLTVLHQDWLNGKEYKCKVSNKALPAPIEKTISKAKGQPREPQVYTLPPSRDELTKNQVSLWCLVKGFYPSDIAVEWESYGTEWSNYKTTPPVLDSDGSFFLYSKLTVSKEEWQQGFVFSCSVMHEALHNHYTQKSLSLSPGK
# heavy 2: not shown
# light: not shown
# B2: Bispecific Protein #2 (bispecific antibody, human IgG1, kappa, L234A L235A)
# heavy: EVQLVESGGGLVQPGGSLRLSCAASGFTFTDYTMDWVRQAPGKGLEWVADVNPNSGGSIYNQRFKGRFTLSVDRSKNTLYLQMNSLRAEDTAVYYCARNLGPSFYFDYWGQGTLVTVSSASTKGPSVFPLAPSSKSTSGGTAALGCLVKDYFPEPVTVSWNSGALTSGVHTFPAVLQSSGLYSLSSVVTVPSSSLGTQTYICNVNHKPSNTKVDKKVEPKSCDKTHTCPPCPAPEAAGGPSVFLFPPKPKDTLMISRTPEVTCVVVDVSHEDPEVKFNWYVDGVEVHNAKTKPREEQYNSTYRVVSVLTVLHQDWLNGKEYKCKVSNKALPAPIEKTISKAKGQPREPQVYTLPPSRDELTKNQVSLWCLVKGFYPSDIAVEWESYGTEWSNYKTTPPVLDSDGSFFLYSKLTVSKEEWQQGFVFSCSVMHEALHNHYTQKSLSLSPGK
# chain: not shown
# light: not shown
# Tests used:
# [1] = target: T1, recombinant human TfR apical domain (human, UniProt P02786 198-378); assay: SPR (Biacore T200 or 8K); protein captured on anti-human Fab chip, recombinant human TfR apical domain as analyte; 1:1 Langmuir fit
# T1 construct: also called transferrin receptor protein 1 apical domain
# Method: Affinities of the bispecific proteins were measured by SPR using a Biacore T200 or a Biacore 8K. Biacore™ Series S CM5 sensor chips were immobilized with monoclonal mouse anti-human IgG (Fc) antibody for HER2 affinity measurements or mouse anti-human Fab for TfR affinity measurements (human antibody or Fab capture kit from GE Healthcare). Serial 3-fold dilutions of analyte (recombinant HER2 extracellular domain or recombinant TfR apical domain) were injected at a flow rate of 30 μL/min. Each sample was analyzed using a 3-minute association and a 10-minute dissociation for HER2 extracellular domain binding and a 40-second association and a 3-minute dissociation for human TfR apical domain binding. After each injection, the chip was regenerated using 3 M MgCl₂ or 50 mM glycine at pH 2.0. Binding response was corrected by subtracting the RU from a flow cell capturing an irrelevant IgG at similar density. A 1:1 Languir model of simultaneous fitting of kon and koff was used for kinetics analysis. […] The two constructs are described below.
# [2] = target: HER2 on HER2^+ tumor cell lines (BT474, OE19, ZR75) (UniProt P04626 23-1255, limits assumed); assay: cell-based or functional assay
# T1 sequence (P02786 198-378 limits assumed): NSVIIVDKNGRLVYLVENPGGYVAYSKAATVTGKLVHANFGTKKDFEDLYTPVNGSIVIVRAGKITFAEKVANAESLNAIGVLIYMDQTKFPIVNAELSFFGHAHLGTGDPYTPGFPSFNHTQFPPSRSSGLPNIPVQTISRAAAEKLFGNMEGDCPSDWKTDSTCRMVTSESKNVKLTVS
Binder,Kd [1],"IC50 (nM), BT474 + NRG1 [2]","IC50 (nM), BT-474 [2]","IC50 (nM), OE19 [2]","Min Cell viability (%), BT474 + NRG1 [2]","Min Cell viability (%), BT-474 [2]","Min Cell viability (%), OE19 [2]","Min Cell viability (%), ZR75-30 [2]"
B1,500 nM,3.5 nM,2.3 nM,1.1 nM,37%,21%,57%,87%
B2,480 nM,,,,,,,
